This passage reports protein stability index results from the supplement of paper PMC10724198.

± gives the standard deviation of the averaged measurements.
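Further: PSI is a weighted mean of sequencing reads over stability bins, variants kept only with over 10 reads, mCherry proximal and sfGFP distal, peptide attached via GGGS linker.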

The test system of this series is Saccharomyces cerevisiae. The series is described as follows: protein stability index of tFT-peptide fusion (C-terminal peptide) (PSI (0-1 scale)); higher = more stable (slower turnover). The conditions noted are these: genetic background: wild type; temperature: 30 C.
As for QPSSYPEANRQG, the protein stability index worked out at 0.671 ± 0.028. As for QPYTPHTAFPAQ, the protein stability index is 0.696 ± 0.011. QQGKWHTRRKKY yielded a protein stability index of 0.659 ± 0.07. With QQKKPKKEKTTE the figure was 0.6744 ± 0.0036. Next, QQKYKLIQLVII: 0.584 ± 0.017; QQLILCLFSPFP: 0.655 ± 0.015.

On to QQMSLRKNQKVK, for which the protein stability index was 0.7 ± 0.066. With QQVRHNVKRVVL the figure was 0.7222 ± 0.0025. Next, QRLQVLIGYDRR: 0.691 ± 0.039. Next, QRPFKCMIKFNK: 0.67 ± 0.0078; QRPGKKNGSGRP: 0.682 ± 0.031; QSGQSELRVVPP: 0.72 ± 0.021. The sequence QSPPRHPSPTAS showed a protein stability index of 0.683 ± 0.082. For QSRPRNMFRVIS, the protein stability index was 0.5469 ± 0.0045. Sequence QSSGGSDSVLFG displayed a protein stability index of 0.738 ± 0.041. With QTKAGKRKEKRE the figure was 0.72 ± 0.12; with QTMYFLRKEKEN, 0.696 ± 0.063.

QTNAEPPSERVT yielded a protein stability index of 0.655 ± 0.083. With QTNYSNQYKEKY the figure was 0.713 ± 0.11.

QTPRYRGLFSAL returned a protein stability index of 0.639 ± 0.038. In the case of QTRKRESPAMVT, the protein stability index worked out at 0.639 ± 0.02. Next, QTRQPKRSDEEK: 0.686 ± 0.014; QTRRQKDAEHPR: 0.714 ± 0.023. Turning to QTSWLKKTIKRE, the protein stability index was found to be 0.678 ± 0.072. On to QVCSRKKCDSRK, for which the protein stability index was determined as 0.567 ± 0.069.

QVDITASPDRTT had a protein stability index of 0.745 ± 0.056. With QVRPKGDPRARV the figure was 0.644 ± 0.1. QVVAAGRPWGVF displayed a protein stability index of 0.677 ± 0.011. For the sequence QVVEANNPALSF, the protein stability index came out at 0.647 ± 0.02. With QWGGEGWILGGV the figure was 0.698 ± 0.031. QWGRGGRHVTDI: the protein stability index was found to be 0.669 ± 0.038.

In the case of QWPCPTLSLRFS, the protein stability index came out at 0.632 ± 0.015. For QWPNPEVLVRST, the protein stability index was 0.70875 ± 0.00048. With QYDHGSSPRRFE the figure was 0.7005 ± 0.0041; with QYILGLLLVPLG, 0.587 ± 0.032; with QYSLGLGQVQVI, 0.662 ± 0.033. Next, RAAATTELAARF: 0.697 ± 0.041. Next, RAACALSRRGLM: 0.926 ± 0.1; RAAIPAHPFVSR: 0.676 ± 0.027; RACLKSRCIAMG: 0.604 ± 0.065.

RACWGKSTGGEW: the protein stability index is 0.723 ± 0.0083. RADLHGFPHRCP gave a protein stability index of 0.76 ± 0.024. With RAGGSANVLAGE the figure was 0.6926 ± 0.0016.

RAKNRFKRQGEN had a protein stability index of 0.667 ± 0.023. With RAPFEGLRCRTG the figure was 0.66 ± 0.033; with RAPPPATLPPLQ, 0.661 ± 0.086; with RARARSVLGRRD, 0.672 ± 0.0091. With RAREFRSRNIGD the figure was 0.74 ± 0.0058; with RASPVSSFSPPS, 0.679 ± 0.041. RATMFFLFPMFP displayed a protein stability index of 0.622 ± 0.024. Next, RAVESPDKSSCE: 0.664 ± 0.11.

RAVPLLPRVLFW displayed a protein stability index of 0.6819 ± 0.0047.

As to RCACLSCSFLLQ, the protein stability index came to 0.679 ± 0.017. For RCALATTNHPRS, the protein stability index was found to be 0.718 ± 0.056. With RCHIPGRIVKTR the figure was 0.628 ± 0.046; with RCKYLPSSRGMI, 0.675 ± 0.011. RCLSVLGLFVGW yielded a protein stability index of 0.634 ± 0.033. As to RCNFHILEIRKY, the protein stability index came to 0.667 ± 0.0057. As to RCRGSSWLLLCA, the protein stability index is 0.518 ± 0.016. The sequence RCRRTTFIELKL had a protein stability index of 0.595 ± 0.048.

RCSYIGSAGSFF returned a protein stability index of 0.732 ± 0.024. Next, RCTLPLSPSCSR: 0.6604 ± 0.0037. Next, RCVLWSVLSTQV: 0.672 ± 0.042; RDECLRVLAPLR: 0.726 ± 0.024; RDFCLGFANTVC: 0.642 ± 0.028. Next, RDKAVAGKKGGS: 0.682 ± 0.017; RDKIRMIDSYLT: 0.696 ± 0.025; RDLLPPLYLPSH: 0.711 ± 0.039. As to RDPWESLDRCYP, the protein stability index was determined as 0.698 ± 0.034. Consider RDTAPPPPPALL, for which the protein stability index worked out at 0.788 ± 0.08. Next, REGSIISYPASG: 0.6989 ± 0.0019; RENGKIIKKRKK: 0.694 ± 0.026.

RERVQYICYERR displayed a protein stability index of 0.695 ± 0.086. Next, RERVVSVKLGGG: 0.688 ± 0.018; RETSRNCGKVST: 0.745 ± 0.043. With REWGWGALVMWG the figure was 0.638 ± 0.042; with RFGGSGGLPGGW, 0.665 ± 0.031. With RFGLRVLGGACR the figure was 0.591 ± 0.071; with RFGSGKCLALRG, 0.689 ± 0.066; with RFGSLKWGRGCI, 0.6759 ± 0.0044.
